The values that follow come from patent US6995141B1, “Interleukin 1β protease and interleukin 1β protease inhibitors” (Vertex Pharmaceuticals Incorporated, priority 1990, dated 2006).

Non-standard residues stand in square brackets, D forms with d. Bounds are passed on as bounds.

Assay [1] deals with T1, purified human IL-1β pro enzyme (Homo sapiens, UniProt P29466).
T1 construct: beginning with amino acid 120; Based upon a molecular weight analysis, the approximate C-terminus of mature IL-1β pro is about amino acid 297; endogenous in cells; host or cells: THP-1 cells (ATCC), stimulated, lysed, six-step chromatography
T1 sequence (P29466 120-297): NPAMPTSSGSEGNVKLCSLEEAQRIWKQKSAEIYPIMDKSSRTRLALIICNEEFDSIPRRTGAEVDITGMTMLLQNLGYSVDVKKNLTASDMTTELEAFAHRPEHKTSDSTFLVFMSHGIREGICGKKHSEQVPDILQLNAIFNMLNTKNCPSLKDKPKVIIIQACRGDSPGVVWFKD
T1 sequence (P29466 317-404): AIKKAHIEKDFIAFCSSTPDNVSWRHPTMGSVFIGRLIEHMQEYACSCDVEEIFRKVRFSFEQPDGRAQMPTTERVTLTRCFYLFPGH
Nature of the assay: Cleavage of synthetic peptide substrates by purified human IL-1β pro enzyme (RP-HPLC). To be noted: for ability of IL-1β pro to cleave the substrate peptide (in words): Tables 1 and 2. In kind it is biochemical. More on the design: key to Reactivity Relative To Peptide 1: reactivity relative to peptide Ala112–Ser121 of precursor IL-1β. The method, then:
This example illustrates the range of substrate specificity of purified human IL-1β pro enzyme to cleave a group of amino acid sequences. A variety of peptide substrates were prepared featuring changes in individual amino acids in the region corresponding to the cleavage site in human precursor IL-1β (His 115 to Pro 118). The reactivity of the peptide substrates was expressed relative to the peptide corresponding to Ala 112 to Ser 121 of the precursor IL-1β sequence.
Peptide solutions of standard concentration were prepared by dissolving about 2–3 mg of peptide substrate in water, loading the solution onto a Waters Sep-Pak C18 cartridge and washing three times with 5 ml of water. The peptide substrates were eluted with acetonitrile and then evaporated to dryness. Each substrate was standardized to 1 mM by amino acid analysis prior to use.
Purified human IL-1β pro enzyme (10 μl), peptide substrate in water (10 μl), and 10 mM Tris buffer, pH 8.0 containing 25% v/v glycerol (10 μl) were mixed and the mixtures were incubated at 37° C. for four hours. The reaction was quenched with by adding 1 M glycine/HCl buffer pH 2.0 (10 μl). The samples were then analyzed using RP-HPLC with a Vydac C18 column (0.46 cm×25 cm) and eluting with a linear gradient from 100% solvent A to 70% solvent A/30% solvent B over 30 minutes at a flow rate of 1 ml/min. The effluent was monitored at 280 nm absorbing product.
This example illustrates the effect of substrate peptide length on the ability of human IL-1β pro enzyme to cleave peptide substrates. […] Five substrate peptides were made that correspond to the amino acid sequence of the IL-1β pro cleavage site of human precursor IL-1.

The target in assay [2] is T2, protease that generates mature IL-1β from the precursor polypeptide (Homo sapiens, UniProt P29466).
T2 construct: host or cells: partially purified (about 500-fold) from THP-1 cell lysates, per Black et al., FEBS Lett. 247:386-90 (1989)
T2 sequence (P29466 120-297 limits assumed): T1 sequence (P29466 120-297)
T2 sequence (P29466 317-404 limits assumed): T1 sequence (P29466 317-404)
The settings on record: Black et al., FEBS Lett., 247:386–90 (1989); cited from earlier work.

Assay [3] has as its target T3, IL-1β pro (Homo sapiens, UniProt P29466).
T3 construct: beginning with amino acid 120; Based upon a molecular weight analysis, the approximate C-terminus of mature IL-1β pro is about amino acid 297
T3 sequence (P29466 120-297): T1 sequence (P29466 120-297)
T3 sequence (P29466 317-404): T1 sequence (P29466 317-404)
Nature of the assay: Inhibition of IL-1β pro catalyzed degradation of preIL-1β, in vitro assay with Western blot. It is filed as biochemical. The protocol: Products were subjected to SDS-PAGE, transferred to nitrocellulose, and probed with an antibody raised against the COOH terminus of mature IL-1β. Lane 3, preIL-1β incubated with 25 μM of inhibitor; lane 4, preIL-1β incubated with 10 μM of inhibitor; lane 5, preIL-1β incubated with 5 μM inhibitor, lane 6, preIL-1β incubated with 1 μM inhibitor.
Boc-Asp-CH2F was tested for its ability to inhibit IL-1β pro catalyzed degradation of preIL-1β using an in vitro assay method. Black, et al., J. Biol. Chem., 263(19): 9437 (1988). Boc-Asp-CH2F was prepared in accordance with the method of example of 1A.
5 μl of preIL-1β (about 50 μg/ml in PBS) was mixed with 10 μl of purified IL-1β pro (15–75 μg/ml in PBS) and incubated at 37° C. for 30 minutes. The incubation was terminated by placing the samples on Dry Ice or by the addition of SDS sample buffer. PMSF was then added to a concentration of 1 mM, and the samples were dialyzed against water. After dialysis, the samples were concentrated to dryness in a Speed-Vac concentrator and dissolved in SDS sample buffer.
SDS-PAGE was carried out with 12% polyacrylamide gels. The gels were placed in transfer buffer (0.192 M glycine. 0.025 M Tris-HCl (pH 8.3), 20% v/v methanol), and protein was then electrophoresed onto nitrocellulos (Sartorius) in a Hoeffer transfer apparatus (1 h at maximum voltage). […]

Assay [4] concerns the target T4, Peptide 10, Ac-Tyr-Val-His-Asp-Ala-Pro-Val-Arg-NH2 (human).
T4 sequence (peptide, N-terminal acetyl (Ac-); C-terminal amide (-NH2)): YVHDAPVR

Assay [5] has as its target Peptide 9, Glu-Ala-Tyr-Val-His-Asp-Ala-Pro (human).
For assay [6], the target named is Peptide 1, Ala-Tyr-Val-His-Asp-Ala-Pro-Val-Arg-Ser (human).
Assay [7] concerns the target Peptide 6, Ala-Tyr-Val-His-Asp-Val-Pro-Val-Arg-Ser.
For assay [8], the target named is Peptide 4, Ala-Tyr-Val-His-(D-Asp)-Ala-Pro-Val-Arg-Ser.
The target of assay [9] is Peptide 8, Ala-Tyr-Val-His-Asp-Ala-Ala-Val-Arg-Ser.
Assay [10] addresses Peptide 5, Ala-Tyr-Val-His-Asp-Gly-Pro-Val-Arg-Ser.
Assay [11] concerns the target Peptide 7, Ala-Tyr-Val-Phe-Asp-Ala-Pro-Val-Arg-Ser.
For assay [12], the target named is Peptide 3, Ala-Tyr-Val-His-Glu-Ala-Pro-Val-Arg-Ser.
Assay [13] deals with Peptide 2, Ala-Tyr-Val-His-Asn-Ala-Pro-Val-Arg-Ser.
The mark [14] stands for this setting: Table 2, effect of substrate peptide length, conducted as in Example 1.
The mark [15] stands for this setting: Table 1, changes at cleavage site, 37° C., four hours, extent of peptide cleavage by RP-HPLC peak area at 280 nm.

As for “Tyr-Val-His-Asp-Ala-Pro-Val-Arg- (Seq. I.D. No. 22) (Ac-YVHDAPVR-NH2) [Peptide 10, eight amino acid substrate peptide]”, the “Reactivity Relative To Peptide 1” value in assay [1] (setting [14]) is given as 2.40. The “ability of IL-1β pro to cleave the substrate peptide (in words)” value (from here on “ability of IL-1β pro”) in assay [1] was “cleaved most efficiently”.
For “Ala-Tyr-Val-His-Glu-Ala-Pro-Val-Arg-Ser (Seq. I.D. No. 15) (AYVHEAPVRS) [Peptide 3, substrate peptide, Asp changed to glutamic acid]”, the “Reactivity Relative To Peptide 1” value in assay [1] (setting [15]) is given as less than 0.05. Moreover, the “ability of IL-1β pro” value in [1] is “profound effect on the ability of IL-1β pro to cleave the substrate”.
Take “Ala-Tyr-Val-His-Asn-Ala-Pro-Val-Arg-Ser (Seq. I.D. No. 14) (AYVHNAPVRS) [Peptide 2, substrate peptide, Asp changed to asparagine]”: the “Reactivity Relative To Peptide 1” value in assay [1] (setting [15]) was less than 0.01. Besides, the “ability of IL-1β pro” value in assay [1] was “profound effect on the ability of IL-1β pro to cleave the substrate”.
For the molecule “Ala-Tyr-Val-His-(D-Asp)-Ala-Pro-Val-Arg-Ser (Seq. I.D. No. 16) (Ac-AYVH[dD]APVRS-NH2) [Peptide 4, substrate peptide, Asp changed to D-aspartate]”, the “Reactivity Relative To Peptide 1” value in [1] (setting [15]) was less than 0.01. Moreover, the “ability of IL-1β pro” value in [1] was “profound effect on the ability of IL-1β pro to cleave the substrate”.
As to “Ala-Tyr-Val-His-Asp-Val-Pro-Val-Arg-Ser (Seq. I.D. No. 18) (AYVHDVPVRS) [Peptide 6, substrate peptide, P1′ alanine changed to valine]”, the “Reactivity Relative To Peptide 1” value in assay [1] (setting [15]) is reported as less than 0.05. For the same molecule, the “ability of IL-1β pro” value in [1] is recorded as “effectively prevents proteolytic cleavage”.
Regarding `O=C(O)CI` [iodoacetate], the “inhibition of the protease (in words)” value in assay [2] was “inhibited”.
For `CCN1C(=O)C=CC1=O` [N-ethylmaleimide], the “inhibition of the protease (in words)” value in assay [2] is recorded as “inhibited”.
“Val-His-Asp-Ala-Pro-Val- (Seq. I.D. No. 23) (VHDAPV) [Peptide 11, six amino acid substrate peptide]”: the “Reactivity Relative To Peptide 1” value in assay [1] (setting [14]) is “Not cleaved”.
Turning to “Ala-Tyr-Val-Phe-Asp-Ala-Pro-Val-Arg-Ser (Seq. I.D. No. 19) (AYVFDAPVRS) [Peptide 7]”, in [1] (setting [15]), the “Reactivity Relative To Peptide 1” value came to 0.50. The “ability of IL-1β pro” value in assay [1] is on record as “A similar result was obtained”.
Take `CC(C)(C)OC(=O)N[C@@H](CC(=O)O)C(=O)CF` [Boc-Asp-CH2F]: the “inhibition of generation of mature IL-1β from preIL-1β” value in [3] (inhibitor concentration 1 μM) was “partially inhibits”; in assay [3] (inhibitor concentration 5 μM), “completely inhibits”.
Consider “Ala-Tyr-Val-His-Asp-Ala-Ala-Val-Arg-Ser (Seq. I.D. No. 20) (AYVHDAAVRS) [Peptide 8, substrate peptide, P2′ proline changed to alanine]”, for which the “Reactivity Relative To Peptide 1” value in assay [1] (setting [15]) came to 0.47. In addition, the “ability of IL-1β pro” value in assay [1] was “still cleaved by human IL-1β pro but only half as efficiently”.
In the case of “Ala-Tyr-Val-His-Asp-Gly-Pro-Val-Arg-Ser (Seq. I.D. No. 17) (AYVHDGPVRS) [Peptide 5, substrate peptide, P1′ alanine replaced with glycine]”, the “times more reactive than peptide 1” value in assay [1] was determined as 3.4 times. In assay [1] (setting [15]), the “Reactivity Relative To Peptide 1” value was 3.40.
With “Glu-Ala-Tyr-Val-His-Asp-Ala-Pro- (Seq. I.D. No. 21) (EAYVHDAPVRSL) [Peptide 9, substrate peptide of the precursor IL-1β cleavage site]”, the “Reactivity Relative To Peptide 1” value in [1] (setting [14]) is reported as 0.74.
As for “His-Asp-Ala-Pro- (Seq. I.D. No. 24) (HDAP) [Peptide 12, four amino acid substrate peptide]”, in [1] (setting [14]), the “Reactivity Relative To Peptide 1” value is on record as “Not cleaved”.

B1: purified human IL-1β pro enzyme (interleukin 1β protease), purified from THP-1 cells (enzyme)
chain: T1 sequence (P29466 120-297)
Turning to B1, the Reactivity Relative To Peptide 1 (peptide cleavage, RP-HPLC) (relative to Peptide 1) in assay [4] was 2.4; in assay [5] it was 0.74; in assay [6], 1; in assay [7], less than 0.05; in assay [8], less than 0.01; in assay [9] it was 0.47. The Reactivity Relative To Peptide 1 (peptide cleavage, RP-HPLC) (relative to Peptide 1) in assay [10] was 3.4; in assay [11], 0.5; in [12], less than 0.05; in assay [13], less than 0.01.
